Reference: paper PMC4999191

Target: calmodulin (CaM agarose beads) (UniProt P62157)
Assay: pull-down with CaM-agarose beads, immunoblot (band quantification printed under the lanes)
Details: parent: 100

| Substance | percent of parent |
| --- | --- |
| PC1-p30, soluble polycystin-1 cytoplasmic tail L4137P | 29 |
| PC1-p30, soluble polycystin-1 cytoplasmic tail R4150C | 116 |
